{"source": "patent US6004757", "key": {"[1]": {"biological_target": "chicken pp60^v-src (chicken)"}, "[2]": {"biological_target": "human EGF receptor (human) (UniProt P00533)"}, "[3]": {"biological_target": "GST-fusion construct of src"}, "[4]": {"biological_target": "chicken pp60^v-src (chicken)", "assay": "inhibition of transphosphorylation of acid denatured enolase (1 µM) by immobilised pp60^v-src, [γ-32P]-ATP, SDS-PAGE"}}, "note": "pKi: −log10 of the molar value.", "data": [{"substance": "peptide Ala-Glu-Glu-Glu-Ile-Tyr-Gly-Glu-Phe-Glu-Ala-Lys-Lys-Lys-Lys", "values": [{"measurement": "Km (µM) of phosphorylation of the peptide by the kinase", "setting": "[1]", "result": 32.9, "unit": "µM"}, {"measurement": "Km (µM) of phosphorylation of the peptide by the kinase", "setting": "[2]", "result": 34, "unit": "µM"}, {"measurement": "Km of phosphorylation of the peptide by the kinase", "setting": "[3]", "result": 33, "unit": "µM"}, {"measurement": "pKi", "setting": "[4]", "result": 5.10}]}]}
